Columns and labels:
enah_human ENAH = enah_human ENAH (UniProt Q8N8S7)
home3_human HOMER3 = home3_human HOMER3 (UniProt Q9NSC5)
Chain of UniProt Q9NSC5 (Q9NSC5 whole entry): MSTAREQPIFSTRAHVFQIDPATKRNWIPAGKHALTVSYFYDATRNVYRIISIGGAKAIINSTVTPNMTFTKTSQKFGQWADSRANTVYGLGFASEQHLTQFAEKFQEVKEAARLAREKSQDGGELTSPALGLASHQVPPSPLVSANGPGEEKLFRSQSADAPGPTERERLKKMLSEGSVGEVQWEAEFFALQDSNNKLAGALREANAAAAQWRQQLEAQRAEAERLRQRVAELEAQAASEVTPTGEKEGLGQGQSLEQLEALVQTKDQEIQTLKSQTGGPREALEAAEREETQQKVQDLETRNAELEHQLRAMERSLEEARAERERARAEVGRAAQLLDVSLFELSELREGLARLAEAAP

Chain of UniProt Q8N8S7 (Q8N8S7 whole entry): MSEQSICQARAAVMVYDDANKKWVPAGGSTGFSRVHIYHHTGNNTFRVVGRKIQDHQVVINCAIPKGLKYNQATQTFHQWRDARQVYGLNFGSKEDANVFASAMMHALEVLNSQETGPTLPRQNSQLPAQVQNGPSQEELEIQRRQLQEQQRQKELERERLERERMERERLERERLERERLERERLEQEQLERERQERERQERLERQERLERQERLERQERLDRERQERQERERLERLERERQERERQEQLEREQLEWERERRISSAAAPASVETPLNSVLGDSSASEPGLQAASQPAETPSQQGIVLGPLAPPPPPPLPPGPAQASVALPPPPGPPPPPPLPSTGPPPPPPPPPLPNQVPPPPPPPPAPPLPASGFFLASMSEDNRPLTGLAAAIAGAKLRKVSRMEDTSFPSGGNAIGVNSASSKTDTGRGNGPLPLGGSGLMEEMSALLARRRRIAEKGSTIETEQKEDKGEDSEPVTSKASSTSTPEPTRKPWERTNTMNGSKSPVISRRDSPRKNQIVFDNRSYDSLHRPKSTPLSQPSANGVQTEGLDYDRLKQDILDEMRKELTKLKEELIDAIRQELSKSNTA

Protocadherin Fat 1 (Homo sapiens), Q14517 P4438D
effect of a mutation on the interaction (enah_human ENAH): disrupting interaction | effect of a mutation on the interaction (home3_human HOMER3): disrupting interaction
